# Data reported in PMC8617172, “Architecture of the outer-membrane core complex from a conjugative type IV secretion system” (Nature Communications, 2021).
# B1: TraK (pED208 F-T4SS outer-membrane core complex protein, VirB9 homologue) (natural protein)
# chain: AQSPATISLPQGGQFRLSISNTDPNMIFIPGDKVTAITAPGGMLADKRLTTAGGVLFTSVATRTFTIFVETALGQTFSVVATPVKGEGRVYRLMSAEPPSRPETRKWETAQAYEKLLISLNRAVLTGDIPDGYGEVKPLSDGIRLPGGFSVTPLKAWAGDQLRADRYELRNANTWGVALREQDFWKPGVRAVMFDNNAQTLMGGGRMTVTVIRGNG
# notes: TraK1 and TraK2 are two conformations of the same chain; 26 copies in the whole OMCC; also called TraK (VirB9); TraK1
# Experiments:
# Assay in all cases: cryo-EM structure; OMCC of TraB-strep, TraK and TraV co-expressed in E. coli, purified from membranes in 50 mM Tris-HCl pH 7.5, 300 mM NaCl, 0.23% w/v LDAO; 0.1 mg/ml on Lacey grids with ultrathin carbon; single-particle maps with C17 (inner ring, 3.3 Å), C13 (outer ring, 3.4 Å) and C1 (5.7 Å) symmetry
# [1] = target: TraB (pED208 F-T4SS outer-membrane core complex protein, VirB10 homologue), strep-tagged (E. coli (plasmid pED208))
# [2] = target: TraV (pED208 F-T4SS outer-membrane core complex lipoprotein, VirB7 homologue) (E. coli (plasmid pED208)) (UniProt P41069)
# [3] = target: the molecule itself
molecule,measurement,setting,value
"TraK (pED208 F-T4SS outer-membrane core complex protein, VirB9 homologue) (natural protein)",stoichiometry N (TraK per TraB),[1],1.53
"TraV (pED208 F-T4SS outer-membrane core complex lipoprotein, VirB7 homologue) (from UniProt P41069 19-171) (natural protein)",stoichiometry N (TraV per TraB),[1],1.53
same,stoichiometry N,[2],26 chains
"TraB (pED208 F-T4SS outer-membrane core complex protein, VirB10 homologue), strep-tagged (natural protein)",stoichiometry N,[1],17 chains
B1,stoichiometry N,[3],26 chains
